Data published in patent US20230398228A1, “ERIBULIN-BASED ANTIBODY-DRUG CONJUGATES AND METHODS OF USE” (EISAI R&D MANAGEMENT CO., LTD., priority 2016, published 2023).

Legend:
[1] = DAR analysis by LC-MS (UPLC/ESI-MS, reverse-phase LC-MS); settings: reverse-phase LC-MS
Description: ADCs were deglycosylated using PNGase F (New England BioLabs). G7 buffer (10 μL) and PNGase F (2 μL) were added to the mAb (90 μL, 1 mg/mL in DPBS). The reaction was incubated in a Discover microwave (CEM) for 2 cycles: (1) microwave power 10 W, 37° C., 10 min, followed by a 5-min pause; (2) microwave power 2 W, 37° C., 10 min. A portion of the sample was reduced by adding DTT to a final concentration of 20 mM, followed by incubation at 60° C. for 3 min. Samples were then analyzed using a Waters Acquity Ultra Performance Liquid Chromatography (UPLC) and quadrupole time of flight (Q-Tof) Premier mass spectrometer. Samples (0.5-2 μg each) were injected onto a MassPrep™ micro desalting column at 65° C., eluted from the column with a 5 min equilibration in 95% of mobile phase A, a 10 min gradient (5-90% B), and a 10 min re-equilibration in 95% of mobile phase A, at 0.05 mL/min. Mobile phase A was 0.1% formic acid in water. Mobile phase B was 0.1% formic acid in acetonitrile. The Q-Tof mass spectrometer was run in positive ion, V-mode with detection in the range of 500-4000 m/z. The source parameters were as follows: capillary voltage, 2.25 kV (intact antibody)-2.50 kV (reduced antibody); sampling cone voltage, 65.0 V (intact antibody) or 50.0 V (reduced antibody); source temperature, 100° C.; desolvation temperature, 250° C.; desolvation gas flow, 550 L/hr. The protein peak was deconvoluted using the MassLynx® MaxEnt 1 function. Relative intensities of each unconjugated, singly-conjugated, and multiply-conjugated heavy and light chain masses were combined to calculate the overall DAR using the formula:
2[[ILC+1+2(ILC+2)+3(ILC+3)+ . . . n(ILC+n)]/ΣILCtot]+2[[IHC+1+2(IHC+2)+3(IHC+3)+ . . . n(IHC+n)]/ΣIHCtot]
where ILC+1 is mass intensity of light chain conjugated with one cytotoxin, ILC+2 is mass intensity of light chain conjugated with two cytotoxins, etc. IHC are the intensities from the corresponding conjugated heavy chains, and ΣILCtot and ΣIHCtot are the combined intensities of all unconjugated and conjugated light chains and heavy chains, respectively.
DAR was also analyzed using an LC-MS method with a Waters Alliance HPLC with SQD/PDA detection. Samples were injected onto a Proteomix RP-1000 column ([…], 1000A, 4.6 mm×15 cm, Sepax) at 65° C., and eluted with a 3 min equilibration in 25% B, a 27 min linear gradient from 25%-55% B, a 5 min hold at 55% B, a 1 min change to 90% B, a 5 min hold at 90% B, a 1 min change back to 25% B, and a 5 min reequilibration at 25% B. Mobile phase A was 0.1% TFA in water, and mobile phase B was 0.1% TFA in acetonitrile. The elute was then split (10:1) into PDA and SQD detectors. The SQD detector was set up as ES positive, capillary voltage at 3.2 kV, cone voltage at 40 V, extractor at 3 V, and RF lens at 0.2 V, source temperature at 150° C., and desolvation temperature at 250° C. Mass data was acquired at 200-2000 m/z for 40 min, continuum mode, scan time 1 second. Data was analyzed and deconvoluted offline using MassLynx and MaxEnt1. DAR was calculated using the formula:
2[[AUCLC+1+2(AUCLC+2)+3(AUCLC+3)+ . . . n(AUCLC+n)]/[…]]+2[[AUCHC+1+2(AUCHC+2)+3(AUCHC+3)+ . . . n(AUCHC+n)]/ΣAUCHCtot]
where AUCLC+1 is the area under the curve of the light chain peak conjugated with one cytotoxin, AUCLC+2 is the area under the curve of the light chain peak conjugated with two cytotoxins, etc. AUCHC is the area under the curve of the corresponding heavy chains, and ΣAUCLCtot and ΣAUCHCtot are the combined area under the curve of all unconjugated and conjugated light chains and heavy chains, respectively.

[2] = test system: IGROV1 cells; test: Crystal Violet cytotoxicity assay (Example 4), IGROV1; assay type: cell-based, human; settings: mean of replicate experiments, read-out: Cytotoxicity IC50 (nM), IGROV1 (FR^hi, MSLN^neg)
Description: Test reagents were serial diluted 1:3 in 2 mL deep-well dilution plates, starting at 200 nM (10 dilutions total). […] Medium was then discarded. […] Plates were read at 570 nm. Data was analyzed using GraphPad Prism 6.

[3] = test system: A431 cells; test: Crystal Violet cytotoxicity assay (Example 4), A431 (parental); assay type: cell-based, human; settings: mean of replicate experiments, read-out: Cytotoxicity IC50 (nM), A431 (FR^neg, MSLN^neg)

Substance: MORAb009-PEG4-eribulin
- DAR (LC-MS) [1]: 4.48
- IC50 [2]: 76.3 nM
- IC50 [3]: > 100 nM

Substance: MORAb009-PEG2-eribulin
- DAR (LC-MS) [1]: 4.55
- IC50 [2]: 42.8 nM
- IC50 [3]: > 100 nM
